Reference: IntAct's records for PubMed 16767699

B1: Septin-11 (Homo sapiens), Q9NVA2 (parent)
chain: MAVAVGRPSNEELRNLSLSGHVGFDSLPDQLVNKSTSQGFCFNILCVGETGIGKSTLMDTLFNTKFESDPATHNEPGVRLKARSYELQESNVRLKLTIVDTVGFGDQINKDDSYKPIVEYIDAQFEAYLQEELKIKRSLFNYHDTRIHACLYFIAPTGHSLKSLDLVTMKKLDSKVNIIPIIAKADTIAKNELHKFKSKIMSELVSNGVQIYQFPTDEETVAEINATMSVHLPFAVVGSTEEVKIGNKMAKARQYPWGVVQVENENHCDFVKLREMLIRVNMEDLREQTHTRHYELYRRCKLEEMGFKDTDPDSKPFSLQETYEAKRNEFLGELQKKEEEMRQMFVMRVKEKEAELKEAEKELHEKFDLLKRTHQEEKKKVEDKKKELEEEVNNFQKKKAAAQLLQSQAQQSGAQQTKKDKDKKNASFT
partner: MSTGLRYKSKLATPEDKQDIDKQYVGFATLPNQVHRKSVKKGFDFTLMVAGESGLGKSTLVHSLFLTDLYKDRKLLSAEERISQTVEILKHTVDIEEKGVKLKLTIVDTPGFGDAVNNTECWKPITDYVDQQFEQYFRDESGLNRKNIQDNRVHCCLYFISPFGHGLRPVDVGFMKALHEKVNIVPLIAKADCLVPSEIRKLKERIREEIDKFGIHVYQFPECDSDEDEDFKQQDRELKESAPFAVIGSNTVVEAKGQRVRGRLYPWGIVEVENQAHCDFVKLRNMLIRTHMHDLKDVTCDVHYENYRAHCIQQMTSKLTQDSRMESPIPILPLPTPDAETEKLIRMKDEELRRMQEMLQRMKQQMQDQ

Variants of: B1
Conditions: with sept5_human SEPTIN5, Q99719

Row | effect of a mutation on the interaction | Variant
1 | disrupting interaction | S55N
